Measured values as given in patent US20200088726A1.

Target: ESO 9V WT-A*02:01 pMHC (human)
Assay: BLI (OctetRED 384), pMHC immobilised on streptavidin biosensor, soluble 1G4 TCR in 1:2 dilution series from 24 µM; fit R² = 0.9992

Kd: 5.12 µM
Substance: 1G4 TCR
